Test results as given in IntAct's records for PubMed 9605924.

B1: Thyroid hormone receptor beta (Homo sapiens), P10828-1 (parent)
chain: MTPNSMTENGLTAWDKPKHCPDREHDWKLVGMSEACLHRKSHSERRSTLKNEQSSPHLIQTTWTSSIFHLDHDDVNDQSVSSAQTFQTEEKKCKGYIPSYLDKDELCVVCGDKATGYHYRCITCEGCKGFFRRTIQKNLHPSYSCKYEGKCVIDKVTRNQCQECRFKKCIYVGMATDLVLDDSKRLAKRKLIEENREKRRREELQKSIGHKPEPTDEEWELIKTVTEAHVATNAQGSHWKQKRKFLPEDIGQAPIVNAPEGGKVDLEAFSHFTKIITPAITRVVDFAKKLPMFCELPCEDQIILLKGCCMEIMSLRAAVRYDPESETLTLNGEMAVTRGQLKNGGLGVVSDAIFDLGMSLSSFNLDDTEVALLQAVLLMSSDRPGLACVERIEKYQDSFLLAFEHYINYRKHHVTHFWPKLLMKVTDLRMIGACHASRFLHMKVECPTELFPPLFLEVFED

What was measured:
[1] = variants of: B1; settings: with ncor2_human NCOR2, Q9Y618
[2] = variants of: B1; settings: with ncoa1_human NCOA1, Q15788
ncoa1_human NCOA1, Q15788, sequence (Q15788 whole entry): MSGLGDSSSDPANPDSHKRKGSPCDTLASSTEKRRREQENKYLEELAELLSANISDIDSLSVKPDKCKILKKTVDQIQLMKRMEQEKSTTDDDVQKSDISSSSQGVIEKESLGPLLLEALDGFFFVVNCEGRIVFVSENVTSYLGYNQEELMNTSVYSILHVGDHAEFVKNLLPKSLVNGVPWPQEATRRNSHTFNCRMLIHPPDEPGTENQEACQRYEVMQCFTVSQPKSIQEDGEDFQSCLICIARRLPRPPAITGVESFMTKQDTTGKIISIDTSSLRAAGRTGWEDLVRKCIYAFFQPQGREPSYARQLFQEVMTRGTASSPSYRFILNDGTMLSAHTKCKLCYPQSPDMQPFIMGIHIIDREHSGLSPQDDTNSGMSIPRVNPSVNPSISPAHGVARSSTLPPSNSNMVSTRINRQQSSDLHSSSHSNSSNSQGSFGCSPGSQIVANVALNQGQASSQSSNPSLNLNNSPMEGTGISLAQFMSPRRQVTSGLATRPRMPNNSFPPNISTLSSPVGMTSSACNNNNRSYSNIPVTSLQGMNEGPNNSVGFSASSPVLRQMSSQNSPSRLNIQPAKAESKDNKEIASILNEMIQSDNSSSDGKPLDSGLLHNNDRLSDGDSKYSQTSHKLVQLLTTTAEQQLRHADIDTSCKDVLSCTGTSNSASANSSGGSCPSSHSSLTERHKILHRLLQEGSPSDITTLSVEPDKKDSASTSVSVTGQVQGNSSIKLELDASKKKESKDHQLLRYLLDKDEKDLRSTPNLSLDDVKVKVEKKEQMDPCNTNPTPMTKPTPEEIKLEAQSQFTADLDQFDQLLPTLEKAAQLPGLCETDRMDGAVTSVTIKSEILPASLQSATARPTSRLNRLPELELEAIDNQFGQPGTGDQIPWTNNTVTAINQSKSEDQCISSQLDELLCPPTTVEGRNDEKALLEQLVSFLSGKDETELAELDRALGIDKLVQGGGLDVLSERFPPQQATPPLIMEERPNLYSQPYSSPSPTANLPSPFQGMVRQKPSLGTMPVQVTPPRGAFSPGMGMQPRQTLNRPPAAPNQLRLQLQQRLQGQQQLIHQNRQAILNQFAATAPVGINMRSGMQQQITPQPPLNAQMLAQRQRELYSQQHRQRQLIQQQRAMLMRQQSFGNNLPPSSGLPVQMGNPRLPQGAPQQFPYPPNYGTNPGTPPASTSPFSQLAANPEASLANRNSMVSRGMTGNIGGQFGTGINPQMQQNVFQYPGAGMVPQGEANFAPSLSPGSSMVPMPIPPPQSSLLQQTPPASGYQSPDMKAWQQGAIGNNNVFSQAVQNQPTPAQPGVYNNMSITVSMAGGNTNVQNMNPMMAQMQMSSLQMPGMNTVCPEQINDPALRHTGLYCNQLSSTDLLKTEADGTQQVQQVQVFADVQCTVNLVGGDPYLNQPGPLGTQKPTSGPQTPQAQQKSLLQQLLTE

ncor2_human NCOR2, Q9Y618, sequence (Q9Y618 whole entry): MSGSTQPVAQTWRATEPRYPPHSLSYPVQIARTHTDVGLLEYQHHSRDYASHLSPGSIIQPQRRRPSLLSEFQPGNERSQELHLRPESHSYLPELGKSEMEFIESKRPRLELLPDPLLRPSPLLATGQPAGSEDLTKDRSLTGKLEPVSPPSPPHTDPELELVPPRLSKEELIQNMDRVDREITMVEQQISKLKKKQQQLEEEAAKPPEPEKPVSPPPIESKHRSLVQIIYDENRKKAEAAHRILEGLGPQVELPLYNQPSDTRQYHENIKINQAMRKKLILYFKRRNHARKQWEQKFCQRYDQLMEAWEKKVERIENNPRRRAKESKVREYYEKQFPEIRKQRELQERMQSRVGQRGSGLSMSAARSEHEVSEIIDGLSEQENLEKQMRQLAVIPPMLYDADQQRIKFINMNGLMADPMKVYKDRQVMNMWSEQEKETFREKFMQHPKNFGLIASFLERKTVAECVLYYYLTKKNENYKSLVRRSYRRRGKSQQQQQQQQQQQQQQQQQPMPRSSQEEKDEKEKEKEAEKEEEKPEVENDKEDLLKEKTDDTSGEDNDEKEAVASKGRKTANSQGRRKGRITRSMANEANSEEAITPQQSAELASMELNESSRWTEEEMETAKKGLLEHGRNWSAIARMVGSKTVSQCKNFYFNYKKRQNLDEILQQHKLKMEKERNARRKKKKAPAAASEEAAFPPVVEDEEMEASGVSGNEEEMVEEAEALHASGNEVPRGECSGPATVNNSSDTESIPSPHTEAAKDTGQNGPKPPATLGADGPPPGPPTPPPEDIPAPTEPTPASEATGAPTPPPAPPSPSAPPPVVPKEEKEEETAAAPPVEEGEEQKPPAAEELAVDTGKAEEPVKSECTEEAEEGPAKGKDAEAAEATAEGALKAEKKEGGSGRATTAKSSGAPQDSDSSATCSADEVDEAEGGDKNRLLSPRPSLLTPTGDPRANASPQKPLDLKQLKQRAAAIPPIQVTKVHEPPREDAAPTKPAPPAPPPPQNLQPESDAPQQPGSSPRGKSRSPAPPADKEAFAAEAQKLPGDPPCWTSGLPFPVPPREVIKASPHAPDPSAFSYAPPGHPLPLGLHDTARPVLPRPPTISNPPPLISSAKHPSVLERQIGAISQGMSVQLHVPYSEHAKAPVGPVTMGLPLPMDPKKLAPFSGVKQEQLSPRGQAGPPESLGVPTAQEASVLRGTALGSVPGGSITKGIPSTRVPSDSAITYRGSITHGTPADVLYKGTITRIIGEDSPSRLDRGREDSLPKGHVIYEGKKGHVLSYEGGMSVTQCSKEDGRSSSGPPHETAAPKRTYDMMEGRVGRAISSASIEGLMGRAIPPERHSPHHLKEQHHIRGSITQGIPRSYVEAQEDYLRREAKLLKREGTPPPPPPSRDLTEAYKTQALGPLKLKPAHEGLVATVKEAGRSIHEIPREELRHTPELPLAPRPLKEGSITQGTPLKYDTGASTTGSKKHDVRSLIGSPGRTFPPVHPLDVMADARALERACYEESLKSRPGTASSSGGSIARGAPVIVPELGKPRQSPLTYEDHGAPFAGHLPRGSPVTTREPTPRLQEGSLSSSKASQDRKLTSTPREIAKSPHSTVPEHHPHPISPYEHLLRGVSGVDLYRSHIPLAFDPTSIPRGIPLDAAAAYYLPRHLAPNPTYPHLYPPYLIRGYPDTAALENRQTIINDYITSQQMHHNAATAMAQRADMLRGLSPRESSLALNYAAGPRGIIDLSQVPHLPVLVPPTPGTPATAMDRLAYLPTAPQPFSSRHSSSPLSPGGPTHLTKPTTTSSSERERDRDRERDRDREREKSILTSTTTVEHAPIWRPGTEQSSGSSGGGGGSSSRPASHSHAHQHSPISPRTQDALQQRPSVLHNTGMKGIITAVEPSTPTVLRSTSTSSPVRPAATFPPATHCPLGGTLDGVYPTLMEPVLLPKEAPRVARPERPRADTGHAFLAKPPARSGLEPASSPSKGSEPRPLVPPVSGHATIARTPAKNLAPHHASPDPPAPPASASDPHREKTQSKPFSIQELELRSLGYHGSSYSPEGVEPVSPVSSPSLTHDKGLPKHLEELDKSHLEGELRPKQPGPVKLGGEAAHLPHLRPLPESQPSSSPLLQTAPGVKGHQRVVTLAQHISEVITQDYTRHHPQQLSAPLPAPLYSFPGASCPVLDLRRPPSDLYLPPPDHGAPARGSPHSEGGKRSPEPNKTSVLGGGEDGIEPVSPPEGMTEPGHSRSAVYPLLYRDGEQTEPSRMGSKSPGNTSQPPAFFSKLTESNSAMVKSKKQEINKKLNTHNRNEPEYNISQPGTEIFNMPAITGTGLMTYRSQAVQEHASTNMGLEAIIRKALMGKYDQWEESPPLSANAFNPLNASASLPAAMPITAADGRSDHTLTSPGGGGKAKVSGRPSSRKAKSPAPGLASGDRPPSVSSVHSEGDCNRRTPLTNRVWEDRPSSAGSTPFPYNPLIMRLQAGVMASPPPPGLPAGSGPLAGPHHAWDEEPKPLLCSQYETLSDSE

Variant | effect of a mutation on the interaction [1] | effect of a mutation on the interaction [2]
R383H | increasing interaction strength | increasing interaction strength
R429Q | increasing interaction strength | increasing interaction strength
